Compound in series [1]: CCOc1cc(O)c(C(=O)/C=C/c2ccc(Cl)cc2Cl)cc1CN1CCC=C(n2c(=O)[nH]c3ccccc32)C1
In words: Mixed type inhibition of human wild-type full length SHP2 assessed as substrate Km at 20 uM using H-Glu-Phe-pTyr-Ala-Glu-Val-Gly-Arg-Ser-Pro-Pro-Asp-Pro-Ala-Lys as substrate by Lineweaver-Burk plot analysis (reference value: 0.034 +/- 0.012 mM).

Compound in series [2]: CCOc1cc(O)c(C(=O)/C=C/c2ccc(Cl)cc2Cl)cc1CN1CCC=C(n2c(=O)[nH]c3ccccc32)C1
Briefly: Mixed type inhibition of human wild-type full length SHP2 assessed as Kcat/Km ratio at 20 uM using H-Glu-Phe-pTyr-Ala-Glu-Val-Gly-Arg-Ser-ProPro-Asp-Pro-Ala-Lys as substrate by Lineweaver-Burk plot analysis (reference value: 100.3 +/- 25 /mM/sec).

Compound in series [3]: CCOc1cc(O)c(C(=O)/C=C/c2ccc(Cl)cc2Cl)cc1CN1CCC=C(n2c(=O)[nH]c3ccccc32)C1
In words: Mixed type inhibition of human wild-type full length SHP2 assessed as substrate Kcat at 20 uM using H-Glu-Phe-pTyr-Ala-Glu-Val-Gly-Arg-Ser-Pro-Pro-Asp-Pro-Ala-Lys as substrate by Lineweaver-Burk plot analysis (reference value: 3.19 +/- 0.28 Sec'-1).

Compound in series [4]: CCOc1cc(O)c(C(=O)/C=C/c2ccc(Cl)cc2Cl)cc1CN1CCC=C(n2c(=O)[nH]c3ccccc32)C1
In words: Mixed type inhibition of human wild-type full length SHP2 assessed as substrate Vmax at 20 uM using H-Glu-Phe-pTyr-Ala-Glu-Val-Gly-Arg-Ser-Pro-Pro-Asp-Pro-Ala-Lys as substrate by Lineweaver-Burk plot analysis (reference value: 5.55 +/- 0.49 uM/min).

Compound in series [5]: CCOc1cc(O)c(C(=O)/C=C/c2ccc(Cl)cc2Cl)cc1CN1CCC=C(n2c(=O)[nH]c3ccccc32)C1
In words: Mixed type inhibition of human wild-type full length SHP2 assessed as Kcat/Km ratio at 10 uM using H-Glu-Phe-pTyr-Ala-Glu-Val-Gly-Arg-Ser-Pro-Pro-Asp-Pro-Ala-Lys as substrate by Lineweaver-Burk plot analysis (reference value: 100.3 +/- 25 /mM/sec).

Compound in series [6]: CCOc1cc(O)c(C(=O)/C=C/c2ccc(Cl)cc2Cl)cc1CN1CCC=C(n2c(=O)[nH]c3ccccc32)C1
Briefly: Mixed type inhibition of human wild-type full length SHP2 assessed as substrate Km at 10 uM using H-Glu-Phe-pTyr-Ala-Glu-Val-Gly-Arg-Ser-Pro-Pro-Asp-Pro-Ala-Lys as substrate by Lineweaver-Burk plot analysis (reference value: 0.034 +/- 0.012 mM).

Compound in series [7]: CCOc1cc(O)c(C(=O)/C=C/c2ccc(Cl)cc2Cl)cc1CN1CCC=C(n2c(=O)[nH]c3ccccc32)C1
In words: Mixed type inhibition of human wild-type full length SHP2 assessed as substrate Kcat at 10 uM using H-Glu-Phe-pTyr-Ala-Glu-Val-Gly-Arg-Ser-Pro-Pro-Asp-Pro-Ala-Lys as substrate by Lineweaver-Burk plot analysis (reference value: 3.19 +/- 0.28 Sec'-1).

Compound in series [8]: CCOc1cc(O)c(C(=O)/C=C/c2ccc(Cl)cc2Cl)cc1CN1CCC=C(n2c(=O)[nH]c3ccccc32)C1
In words: Mixed type inhibition of human wild-type full length SHP2 assessed as substrate Vmax at 10 uM using H-Glu-Phe-pTyr-Ala-Glu-Val-Gly-Arg-Ser-Pro-Pro-Asp-Pro-Ala-Lys as substrate by Lineweaver-Burk plot analysis (reference value: 5.55 +/- 0.49 uM/min).

B1: Tyrosine-protein phosphatase non-receptor type 11 (Homo sapiens), Q06124 (protein)
chain: MTSRRWFHPNITGVEAENLLLTRGVDGSFLARPSKSNPGDFTLSVRRNGAVTHIKIQNTGDYYDLYGGEKFATLAELVQYYMEHHGQLKEKNGDVIELKYPLNCADPTSERWFHGHLSGKEAEKLLTEKGKHGSFLVRESQSHPGDFVLSVRTGDDKGESNDGKSKVTHVMIRCQELKYDVGGGERFDSLTDLVEHYKKNPMVETLGTVLQLKQPLNTTRINAAEIESRVRELSKLAETTDKVKQGFWEEFETLQQQECKLLYSRKEGQRQENKNKNRYKNILPFDHTRVVLHDGDPNEPVSDYINANIIMPEFETKCNNSKPKKSYIATQGCLQNTVNDFWRMVFQENSRVIVMTTKEVERGKSKCVKYWPDEYALKEYGVMRVRNVKESAAHDYTLRELKLSKVGQGNTERTVWQYHFRTWPDHGVPSDPGGVLDFLEEVHHKQESIMDAGPVVVHCSAGIGRTGTFIVIDILIDIIREKGVDCDIDVPKTIQMVRSQRSGMVQTEAQYRFIYMAVQHYIETLQRRIEEEQKSKRKGHEYTNIKYSLADQTSGDQSPLPPCTPTPPCAEMREDSARVYENVGLMQQQKSFR
In the case of B1, the Km is 52 µM in series [1] and 47 µM in series [6]. Also, the kcat/Km in series [2] was determined as 17200 M⁻¹ s⁻¹; in series [5] it was 33200 M⁻¹ s⁻¹. In addition, the kcat in series [3] amounted to 0.86 s⁻¹; in series [7], 1.5 s⁻¹. Besides, the Vmax stood at 1.5 µM/min in series [4] and 2.6 µM/min in series [8].
